Patent publication US20260016475A1 (VENTANA MEDICAL SYSTEMS, published 2026)
Where no end group is shown, it is not given here.

Tests used:
[1] = target: T1, human TAP1 peptide DGKPLPQYEHRYLHR (human, also: conjugated to KLH for immunisation); experiment: raised against the peptide; ELISA screen of antibody-expressing cells on the immunogenic peptide (Example 1)
T1 construct: Synthetic peptide, conjugated to KLH for immunisation; also called immunogenic peptide
T1 peptide: DGKPLPQYEHRYLHR

human TAP1 protein = target: T2, human TAP1 protein (human, UniProt Q03518 1-748); experiment: IHC on sections of cell blocks of 293T, 293T-TAP1 and 293T-TAP2 cells
T2 construct: It is an intracellular protein; also called recombinant TAP1
T2 sequence: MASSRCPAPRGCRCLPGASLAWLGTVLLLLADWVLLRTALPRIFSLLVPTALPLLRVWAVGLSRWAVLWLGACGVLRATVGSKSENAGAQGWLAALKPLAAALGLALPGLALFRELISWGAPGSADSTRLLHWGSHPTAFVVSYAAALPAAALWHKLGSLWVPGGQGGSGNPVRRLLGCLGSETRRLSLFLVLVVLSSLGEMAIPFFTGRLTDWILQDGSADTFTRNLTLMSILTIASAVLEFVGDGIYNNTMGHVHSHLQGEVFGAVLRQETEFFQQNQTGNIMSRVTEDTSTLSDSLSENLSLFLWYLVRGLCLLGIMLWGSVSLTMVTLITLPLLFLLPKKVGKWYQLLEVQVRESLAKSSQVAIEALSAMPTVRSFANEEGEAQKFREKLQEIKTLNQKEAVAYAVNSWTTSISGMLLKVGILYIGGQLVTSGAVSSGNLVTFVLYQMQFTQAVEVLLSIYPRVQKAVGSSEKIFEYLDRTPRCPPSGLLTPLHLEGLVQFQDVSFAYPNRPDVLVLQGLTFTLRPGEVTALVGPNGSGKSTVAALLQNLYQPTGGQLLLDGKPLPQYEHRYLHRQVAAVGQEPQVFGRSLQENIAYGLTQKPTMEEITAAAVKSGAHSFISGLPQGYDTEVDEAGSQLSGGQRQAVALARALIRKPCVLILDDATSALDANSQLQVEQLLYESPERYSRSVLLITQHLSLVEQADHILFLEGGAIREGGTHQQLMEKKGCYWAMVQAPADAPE
Excerpt: anti-TAP1 rabbit monoclonal primary antibodies were directed against the sequence […] (SEQ ID NO: 23), which represents amino acids 625-640 of human TAP1. The peptide was synthesized and covalently conjugated to keyhole limpet haemocyanin (KLH) carrier protein. Rabbits were immunized with KLH-conjugated peptide with complete Freund's adjuvant followed by a series of booster injections of the same immunogen in incomplete Freund's adjuvant. The rabbit that produced the best positive polyclonal antibody by immunohistochemistry (IHC) was chosen for monoclonal development. IHC staining was performed on a BenchMark automated slide stainer at Roche Diagnostics in Tucson, AZ. The staining procedure included deparaffinization, pretreatment using standard Cell Conditioning 1, incubation with antibody (TAP1: 0.925 μg/mL) at 36° C. for 16 min. […] TAP1 was detected by immunohistochemistry (IHC) using OptiView Universal DAB detection kit (Ventana).
Rabbit monoclonal antibody S14H22L21 was applied onto formalin fixed paraffin embedded tissue samples to assess the staining patterns of the antibody by IHC as described in Example 1. […] Cell lysates from HEK293T cells, HEK293T cells expressing TAP1, and HEK293T cells expressing TAP2 were analyzed alongside lysates from a negative control cell line (RPMI6226) and two positive control cell lines (HDLM2 and U266B1).

human TAP2 protein = target: T3, human TAP2 protein (human, UniProt Q03519 1-686); experiment: western blot of lysates of HEK293T cells expressing TAP2
T3 construct: It is an intracellular protein; also called recombinant TAP2
T3 sequence: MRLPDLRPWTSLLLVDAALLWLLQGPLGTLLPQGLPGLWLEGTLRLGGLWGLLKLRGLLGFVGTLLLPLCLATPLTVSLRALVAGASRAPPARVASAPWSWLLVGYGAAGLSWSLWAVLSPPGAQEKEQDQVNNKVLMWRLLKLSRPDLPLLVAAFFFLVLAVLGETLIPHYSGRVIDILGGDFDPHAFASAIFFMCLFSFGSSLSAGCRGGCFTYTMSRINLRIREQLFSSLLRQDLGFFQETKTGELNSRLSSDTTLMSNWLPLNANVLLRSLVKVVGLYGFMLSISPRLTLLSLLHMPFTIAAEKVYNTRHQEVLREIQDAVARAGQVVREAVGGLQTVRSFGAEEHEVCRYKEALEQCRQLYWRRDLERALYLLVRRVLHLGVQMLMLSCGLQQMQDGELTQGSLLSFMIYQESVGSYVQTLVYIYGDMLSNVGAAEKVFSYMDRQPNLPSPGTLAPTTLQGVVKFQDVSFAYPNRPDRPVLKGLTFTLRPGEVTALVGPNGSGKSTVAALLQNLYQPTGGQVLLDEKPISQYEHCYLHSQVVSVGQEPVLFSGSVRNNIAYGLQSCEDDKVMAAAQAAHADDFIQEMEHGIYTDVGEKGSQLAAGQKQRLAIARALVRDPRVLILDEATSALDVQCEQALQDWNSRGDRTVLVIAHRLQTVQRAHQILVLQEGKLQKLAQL
Protocol: Rabbit monoclonal antibody S14H22L21 was applied onto formalin fixed paraffin embedded tissue samples to assess the staining patterns of the antibody by IHC as described in Example 1. Tissue samples included the positive and negative controls listed in Example 1, 8 ccRCC tissues, and a tour of tumor array (see FIGS. 4A-4B and 5A-5C). Western blot analysis was carried out to assess the specificity of S14H22L21. Cell lysates from HEK293T cells, HEK293T cells expressing TAP1, and HEK293T cells expressing TAP2 were analyzed alongside lysates from a negative control cell line (RPMI6226) and two positive control cell lines (HDLM2 and U266B1).

binding result [1]: binds
binding result (human TAP1 protein): binds
binding result (human TAP2 protein): no binding
B1: rabbit anti-human TAP1 monoclonal antibody S14H22L21 (antibody, V domains shown)
VH: QSVKESEGGLFKPTDTLTLTCTVSGFSLSSYEVIWVRQAPGKGLEWIGNIGWRDTTFYANWAKSRSTFTRDTNLNTVTLKMTSLTAADTATYFCARDNGYFGIDYWGPGTLVTVSS
VL: DIVMTQTPASVEAAVGGTVTIKCQASQSISNYLAWYQQKPGQPPKLLIYKASTLASGVPSRFSGSGSGTQFTLTISGVQCDDAATYYCQQDFNYRNIENVFGGGTGVVVK
notes: Recombinant rabbit monoclonal, purified on Protein A; also called clone S14H22L21; TAP1 antibody
